Experiments:
GST-SRSF1 [1] = molecular target: T1, GST-SRSF1 (human, UniProt Q07955 1-248); experiment: competition; EMSA vs IRD-800 miR-1246; did not alter binding; EMSA: 40 mM Tris pH 8.0, 30 mM KCl, 1 mM MgCl2, 0.001% NP40, 1 mM DTT, 5% glycerol, room temperature 40 min, 4% native gel; settings: protein: recombinant; tags: N-terminal GST (pGEX6P); no self-complementarity
GST-SRSF1 [2] = molecular target: T1, GST-SRSF1; experiment: competition; EMSA vs IRD-800 miR-1246; concentration-dependent; dissociation constant only in Fig. 6f; EMSA: 40 mM Tris pH 8.0, 30 mM KCl, 1 mM MgCl2, 0.001% NP40, 1 mM DTT, 5% glycerol, room temperature 40 min, 4% native gel; settings: protein: recombinant; tags: N-terminal GST (pGEX6P); no self-complementarity

T1 sequence (Q07955 whole entry): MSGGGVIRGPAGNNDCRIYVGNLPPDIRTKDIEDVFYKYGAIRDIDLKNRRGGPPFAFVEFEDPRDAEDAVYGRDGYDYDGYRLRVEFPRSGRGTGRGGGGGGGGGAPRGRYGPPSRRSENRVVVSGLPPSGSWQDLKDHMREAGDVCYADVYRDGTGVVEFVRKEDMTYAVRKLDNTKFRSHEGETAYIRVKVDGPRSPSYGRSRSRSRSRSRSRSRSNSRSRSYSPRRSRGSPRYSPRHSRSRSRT

Binder	binding result (GST-SRSF1 [1])	binding result (GST-SRSF1 [2])
UUGGACUAGGACUAGGAU (ssRNA) [Decoy mimic 1 (D1)]	no binding	
AGGAAGGAAGGAAGGA (ssRNA) [Decoy mimic 2 (D2)]		binds

From publication PMC7439691, “SRSF1 regulates exosome microRNA enrichment in human cancer cells”
